Substitutions are numbered along the chain they refer to. Numbers in names are those of the source.
B1: S5: Tgase variant S2P Q39N Q51E relative to SEQ ID NO: 2 (protein, UniProt P81453 77-407, looked up, variant S2P Q39N Q51E)
Protein-glutamine …: DPDDRVTPPAEPLDRMPDPYRPSYGRAETVVNNYIRKWNQVYSHRDGRKQEMTEEQREWLSYGCVGVTWVNSGQYPTNRLAFASFDEDRFKNELKNGRPRSGETRAEFEGRVAKESFDEEKGFQRAREVASVMNRALENAHDESAYLDNLKKELANGNDALRNEDARSPFYSALRNTPSFKERNGGNHDPSRMKAVIYSKHFWSGQDRSSSADKRKYGDPDAFRPAPGTGLVDMSRDRNIPRSPTSPGEGFVNFDYGWFGAQTEADADKTVWTHGNHYHAPNGSLGAMHVYESKFRNWSEGYSDFDRGAYVITFIPKSWNTAPDKVKQGWP
B2: S12: Tgase variant S2P Q124L K151R K152R relative to SEQ ID NO: 2 (protein, UniProt P81453 77-407, looked up, variant S2P Q124L K151R K152R)
Protein-glutamine …: B1 Protein-glutamine … with N39Q, E51Q, Q124L, K151R, K152R
B3: S16: Tgase variant S2P Q50S Q74A K91H Q124L K151R K152R relative to SEQ ID NO: 2 (protein, UniProt P81453 77-407, looked up, variant S2P Q50S Q74A K91H Q124L K151R K152R)
Protein-glutamine …: B1 Protein-glutamine … with N39Q, Q50S, E51Q, Q74A, K91H, Q124L, K151R, K152R
B4: S1: Tgase variant S2P Q50H relative to SEQ ID NO: 2 (protein, UniProt P81453 77-407, looked up, variant S2P Q50H)
Protein-glutamine …: B1 Protein-glutamine … with N39Q, Q50H, E51Q
B5: S3: Tgase variant S2P Q50A relative to SEQ ID NO: 2 (protein, UniProt P81453 77-407, looked up, variant S2P Q50A)
Protein-glutamine …: B1 Protein-glutamine … with N39Q, Q50A, E51Q
B6: S15: Tgase variant S2P Q51P Q56M Q74A K91E relative to SEQ ID NO: 2 (protein, UniProt P81453 77-407, looked up, variant S2P Q51P Q56M Q74A K91E)
Protein-glutamine …: B1 Protein-glutamine … with N39Q, E51P, Q56M, Q74A, K91E
B7: S10: Tgase variant S2P Q124E K151R K152R relative to SEQ ID NO: 2 (protein, UniProt P81453 77-407, looked up, variant S2P Q124E K151R K152R)
Protein-glutamine …: B1 Protein-glutamine … with N39Q, E51Q, Q124E, K151R, K152R
B8: S14: Tgase variant S2P Q50S Q51E Q56E relative to SEQ ID NO: 2 (protein, UniProt P81453 77-407, looked up, variant S2P Q50S Q51E Q56E)
Protein-glutamine …: B1 Protein-glutamine … with N39Q, Q50S, Q56E
B9: S7: Tgase variant S2P K49T Q74M relative to SEQ ID NO: 2 (protein, UniProt P81453 77-407, looked up, variant S2P K49T Q74M)
Protein-glutamine …: B1 Protein-glutamine … with N39Q, K49T, E51Q, Q74M
B10: S9: Tgase variant S2P Q51I K95I relative to SEQ ID NO: 2 (protein, UniProt P81453 77-407, looked up, variant S2P Q51I K95I)
Protein-glutamine …: B1 Protein-glutamine … with N39Q, E51I, K95I
B11: S2: Tgase variant S2P Q74V relative to SEQ ID NO: 2 (protein, UniProt P81453 77-407, looked up, variant S2P Q74V)
Protein-glutamine …: B1 Protein-glutamine … with N39Q, E51Q, Q74V
B12: S13: Tgase variant S2P Q124N K151R K152R relative to SEQ ID NO: 2 (protein, UniProt P81453 77-407, looked up, variant S2P Q124N K151R K152R)
Protein-glutamine …: B1 Protein-glutamine … with N39Q, E51Q, Q124N, K151R, K152R
B13: S17: Tgase variant S2P Q50S Q74A K91H Q124N K151R K152R relative to SEQ ID NO: 2 (protein, UniProt P81453 77-407, looked up, variant S2P Q50S Q74A K91H Q124N K151R K152R)
Protein-glutamine …: B1 Protein-glutamine … with N39Q, Q50S, E51Q, Q74A, K91H, Q124N, K151R, K152R
B14: S4: Tgase variant S2P Q51P relative to SEQ ID NO: 2 (protein, UniProt P81453 77-407, looked up, variant S2P Q51P)
Protein-glutamine …: B1 Protein-glutamine … with N39Q, E51P
B15: S11: Tgase variant S2P Q124I K151R K152R relative to SEQ ID NO: 2 (protein, UniProt P81453 77-407, looked up, variant S2P Q124I K151R K152R)
Protein-glutamine …: B1 Protein-glutamine … with N39Q, E51Q, Q124I, K151R, K152R
B16: S6: Tgase variant S2P Q56M Q74S relative to SEQ ID NO: 2 (protein, UniProt P81453 77-407, looked up, variant S2P Q56M Q74S)
Protein-glutamine …: B1 Protein-glutamine … with N39Q, E51Q, Q56M, Q74S
B17: S19: Tgase variant S2P K49H Q50A Q74C Q124N K151R K152R relative to SEQ ID NO: 2 (protein, UniProt P81453 77-407, looked up, variant S2P K49H Q50A Q74C Q124N K151R K152R)
Protein-glutamine …: B1 Protein-glutamine … with N39Q, K49H, Q50A, E51Q, Q74C, Q124N, K151R, K152R
B18: S20: Tgase variant S2P Q51A Q74T K95I Q124L K151R K152R relative to SEQ ID NO: 2 (protein, UniProt P81453 77-407, looked up, variant S2P Q51A Q74T K95I Q124L K151R K152R)
Protein-glutamine …: B1 Protein-glutamine … with N39Q, E51A, Q74T, K95I, Q124L, K151R, K152R
B19: S8: Tgase variant S2P K49T Q74F relative to SEQ ID NO: 2 (protein, UniProt P81453 77-407, looked up, variant S2P K49T Q74F)
Protein-glutamine …: B1 Protein-glutamine … with N39Q, K49T, E51Q, Q74F
B20: S21: Tgase variant S2P Q50T Q51A Q74M K95E Q124L K151R K152R relative to SEQ ID NO: 2 (protein, UniProt P81453 77-407, looked up, variant S2P Q50T Q51A Q74M K95E Q124L K151R K152R)
Protein-glutamine …: B1 Protein-glutamine … with N39Q, Q50T, E51A, Q74M, K95E, Q124L, K151R, K152R
B21: S18: Tgase variant S2P K49H Q50A Q74C Q124L K151R K152R relative to SEQ ID NO: 2 (protein, UniProt P81453 77-407, looked up, variant S2P K49H Q50A Q74C Q124L K151R K152R)
Protein-glutamine …: B1 Protein-glutamine … with N39Q, K49H, Q50A, E51Q, Q74C, Q124L, K151R, K152R
B22: A4: Tgase variant S2P Q50S Q74A K91H Q124L K151R K152R N282Q S284A H289I relative to SEQ ID NO: 2 (protein, UniProt P81453 77-407, looked up, variant S2P Q50S Q74A K91H Q124L K151R K152R N282Q S284A H289I)
Protein-glutamine …: DPDDRVTPPAEPLDRMPDPYRPSYGRAETVVNNYIRKWQQVYSHRDGRKSQMTEEQREWLSYGCVGVTWVNSGAYPTNRLAFASFDEDRFHNELKNGRPRSGETRAEFEGRVAKESFDEEKGFLRAREVASVMNRALENAHDESAYLDNLRRELANGNDALRNEDARSPFYSALRNTPSFKERNGGNHDPSRMKAVIYSKHFWSGQDRSSSADKRKYGDPDAFRPAPGTGLVDMSRDRNIPRSPTSPGEGFVNFDYGWFGAQTEADADKTVWTHGNHYHAPQGALGAMIVYESKFRNWSEGYSDFDRGAYVITFIPKSWNTAPDKVKQGWP

Tested on: N,N-dimethylcasein
Experiment: Chemostability: residual Tgase activity after 24 hour incubation at 20-30 °C, normalized to wild-type
Type: biochemical
Details: improvement relative to wild-type mature Tgase (SEQ ID NO: 2); residual activity after 24 h at 20-30 °C in cell-free extract
Method: Table 5 depicts variants of Streptomyces mobaraensis Tgase and improvement to stability relative to wild-type mature Tgase (SEQ ID NO. 2) as determined in Example 3. Numbering of amino acid positions is in reference to the mature S. mobaraensis Tgase sequence depicted in SEQ ID NO. 2. A “+” indicates an improvement between 1.2 and 2-fold. A “++” indicates an improvement greater than 2-fold.
To evaluate chemostability, Tgase samples in cell-free extract were assayed for activity, using the assay described in Example 4B, immediately after expression and again following a 24 hour incubation at 20-30° C. Mature Tgase variant residual activity was normalized to the residual activity of the wild-type and results are depicted in Table 5.
(§1) Protein functionalization by Tgase variants was determined by the fluorogenic labeling of casein using monodansylcadaverine (e.g., a commercially available kit such as the Transglutaminase Fluorogenic Activity Assay Kit, T036, Zedira, Germany). Tgase activity was monitored by measuring fluorescence (excitation wavelength 332 nm; emission wavelength 500 nm) using a BioTek Synergy H1 microplate reader. Transglutaminase-catalyzed covalent coupling (crosslinking) of monodansylcadaverine with N,N-dimethylcasein produces a product that causes a shift in intensity and wavelength of fluorescence of the dansyl group now linked to the casein. The relative transglutaminase activity is shown by increase of fluorescence intensity over time. Enzyme variant loading was optimized based on expression levels, ensuring enzyme was the rate limiting factor. Briefly, cell-free reactions (set up as described in Example 2A) were first diluted 10-fold using phosphate buffer, pH 7.4, and a 5 microliter aliquot was analyzed.

Molecule | Stability
B1 | + (an improvement between 1.2 and 2-fold)
B2 | ++ (an improvement greater than 2-fold)
B3 | ++ (an improvement greater than 2-fold)
B4 | ++ (an improvement greater than 2-fold)
B5 | ++ (an improvement greater than 2-fold)
B6 | ++ (an improvement greater than 2-fold)
B7 | ++ (an improvement greater than 2-fold)
B8 | ++ (an improvement greater than 2-fold)
B9 | + (an improvement between 1.2 and 2-fold)
B10 | + (an improvement between 1.2 and 2-fold)
B11 | ++ (an improvement greater than 2-fold)
B12 | + (an improvement between 1.2 and 2-fold)
B13 | + (an improvement between 1.2 and 2-fold)
B14 | + (an improvement between 1.2 and 2-fold)
B15 | ++ (an improvement greater than 2-fold)
B16 | ++ (an improvement greater than 2-fold)
B17 | + (an improvement between 1.2 and 2-fold)
B18 | + (an improvement between 1.2 and 2-fold)
B19 | + (an improvement between 1.2 and 2-fold)
B20 | + (an improvement between 1.2 and 2-fold)
B21 | + (an improvement between 1.2 and 2-fold)

Tested on: N,N-dimethylcasein
Experiment: Rate of product formation over 60 minutes (protein functionalization assay)
Type: biochemical
Set-up: key: −: a reduction in activity; +: an improvement between 1.2 and 2-fold; ++: an improvement between 2 and 5-fold; +++: an improvement greater than 5-fold
Details: improvement relative to wild-type Tgase (SEQ ID NO: 2); initial rate over 60 min
Method: (§2) Enzymatic “productivity” is a measure of product formation or substrate disappearance over time, at a prescribed temperature under specified reaction conditions. It is the measure both the durability and reaction yield of the enzyme variant. In this instance, productivity is defined as total product formed over 24-hours at a constant substrate concentration when the enzyme is the rate limiting factor. The time is defined as 24 hours, which represents approaching or surpassing burnout, denaturation, or self-reaction of the enzyme variant. In other words, variants with higher productivity deliver a higher product yield in 24-hours than variants with lower productivity produce in the same period of time. “Rate” refers to the initial rate for an enzymatic reaction, at a prescribed temperature under specified reaction conditions. The enzyme produces product at an initial rate that is approximately linear for a short period after the start of the reaction. When concentrations of enzyme and substrate are the same across the sample set, initial rates between enzyme variants can be compared. In this instance, the linear range for production of product occurs in one hour. Enzyme variants with faster initial rates deliver a higher product yield in one hour than variants with slower initial rates produce at the same time-period. In some cases, improvements to initial rates also deliver a more productive variant. In some cases, improvements to initial rates result in faster decay of the enzyme variant reducing overall enzymatic productivity. Productivity and rate may be assessed as described in Example 2.
(§3) Table 6 depicts variants of Streptomyces mobaraensis Tgase and improvement to productivity and/or rate relative to wild-type Tgase (SEQ ID NO. 2) as determined in Example 3. Numbering of amino acid positions is in reference to the mature S. mobaraensis Tgase sequence depicted in SEQ ID NO. 2. A “−” indicates a reduction in activity. A “+” indicates an improvement between 1.2 and 2-fold. A “++” indicates an improvement between 2 and 5-fold. A “+++” indicates an improvement greater than 5-fold.
Rate was assessed by measuring the rate of product formation over 60 minutes of incubation using a kinetic method to take scans every 60 seconds to determine product formation, using reaction conditions as described in Example 4B. The enzyme produces product at an initial rate that is approximately linear for the first one hour of the reaction. The concentrations of enzyme and substrate are the same across the sample set for each enzyme variant. Enzyme variants with faster initial rates deliver a higher product yield in one hour than variants with slower initial rates produce at the same time-period.
as §1

Molecule | Rate
B22 | −

Tested on: N,N-dimethylcasein
Experiment: Productivity: total product formed after 24 hours (protein functionalization assay)
Type: biochemical
Details: improvement relative to wild-type Tgase (SEQ ID NO: 2); total product after 24 h
Method: as §2, §3
To evaluate productivity, total product formed was measured after 24-hours of incubation, using the assay described in Example 4B. The time is defined as 24 hours which represents approaching or surpassing burnout, denaturation, or self-reaction of the enzyme variant.
as §1

Molecule | Productivity
B22 | + (an improvement between 1.2 and 2-fold)

Source: patent publication US20260327578A1, “TRANSGLUTAMINASES AND USES THEREOF” (CURIE CO. INC., priority 2023, published 2026)
